# Reference: patent US9802997B2, “Peptides and combination of peptides for use in immunotherapy against various tumors” (immatics biotechnologies GmbH, priority 2015, dated 2017)
# Molecular target: HLA-A*02:01 (Homo sapiens, UniProt P04439, D140Y/D185E/D98H/E176V/E277Q/G131W/G231S/I119V/I121R/I166T/I218V/L300P/L318F/N151K/N90K/P208A/P217A/Q86G/Q94H/R138H/R169H/T345S)
# Experiment: MHC binding assay (UV-ligand exchange, beta2m ELISA)
# Settings: binding to HLA-A*02:01, β2m ELISA
# From the text: Candidate peptides for T cell based therapies according to the present invention were further tested for their MHC binding capacity (affinity). The individual peptide-MHC complexes were produced by UV-ligand exchange, where a UV-sensitive peptide is cleaved upon UV-irradiation, and exchanged with the peptide of interest as analyzed. Only peptide candidates that can effectively bind and stabilize the peptide-receptive MHC molecules prevent dissociation of the MHC complexes. To determine the yield of the exchange reaction, an ELISA was performed based on the detection of the light chain (β2m) of stabilized MHC complexes. The assay was performed as generally described in Rodenko et al. (Rodenko et al., 2006).
# 96 well MAXISorp plates (NUNC) were coated over night with 2 ug/ml streptavidin in PBS at room temperature, washed 4× and blocked for 1 h at 37° C. in 2% BSA containing blocking buffer. Refolded HLA-A*02:01/MLA-001 monomers served as standards, covering the range of 15-500 ng/ml. Peptide-MHC monomers of the UV-exchange reaction were diluted 100 fold in blocking buffer. Samples were incubated for 1 h at 37° C., washed four times, incubated with 2 ug/ml HRP conjugated anti-β2m for 1 h at 37° C., washed again and detected with TMB solution that is stopped with […]. Absorption was measured at 450 nm. Candidate peptides that show a high exchange yield (preferably higher than 50%, most preferred higher than 75%) are generally preferred for a generation and production of antibodies or fragments thereof, and/or T cell receptors or fragments thereof, as they show sufficient avidity to the MHC molecules and prevent dissociation of the MHC complexes.
row,"Peptide exchange (MHC class I binding score, peptide exchange yield)",Substance
1,+++ (≧50 = +++),12 (RLLDPKTIFL; listed as Homo sapiens) [compound 12]
2,+++ (≧50 = +++),165 (SLLDYEVSI; listed as Homo sapiens) [compound 165]
3,++ (≧20% = ++),163 (GLEERLYTA; listed as Homo sapiens) [compound 163]
4,++ (≧20% = ++),119 (SLIEESEEL; listed as Homo sapiens) [compound 119]
5,++ (≧20% = ++),245 (ALLEEEEGV; listed as Homo sapiens) [compound 245]
6,++ (≧20% = ++),52 (TIGIPFPNV; listed as Homo sapiens) [compound 52]
7,++ (≧20% = ++),149 (NMADGQLHQV; listed as Homo sapiens) [compound 149]
8,++ (≧20% = ++),91 (LLPSIFLMV; listed as Homo sapiens) [compound 91]
9,+++ (≧50 = +++),23 (ALLSPLSLA; listed as Homo sapiens) [compound 23]
10,+++ (≧50 = +++),173 (RLIDIYKNV; listed as Homo sapiens) [compound 173]
11,++ (≧20% = ++),83 (GLLENSPHL; listed as Homo sapiens) [compound 83]
12,+++ (≧50 = +++),211 (LLTTVLINA; listed as Homo sapiens) [compound 211]
13,+++ (≧50 = +++),54 (YLVPGLVAA; listed as Homo sapiens) [compound 54]
14,+++ (≧50 = +++),58 (HLLGEGAFAQV; listed as Homo sapiens) [compound 58]
15,+++ (≧50 = +++),195 (VIIQNLPAL; listed as Homo sapiens) [compound 195]
16,+++ (≧50 = +++),251 (LLWGNLPEI; listed as Homo sapiens) [compound 251]
17,+++ (≧50 = +++),241 (KQFEGTVEI; listed as Homo sapiens) [compound 241]
18,+++ (≧50 = +++),94 (YLDEVAFML; listed as Homo sapiens) [compound 94]
19,+++ (≧50 = +++),16 (SLADLSLLL; listed as Homo sapiens) [compound 16]
20,+++ (≧50 = +++),177 (ALINVLNAL; listed as Homo sapiens) [compound 177]
21,++ (≧20% = ++),42 (KQMSISTGL; listed as Homo sapiens) [compound 42]

row,"Peptide exchange (MHC class I binding score, peptide exchange yield)",Substance
1,+++ (≧50 = +++),25 (LLWGHPRVALA; listed as Homo sapiens) [compound 25]
2,++ (≧20% = ++),70 (GLTEKTVLV; listed as Homo sapiens) [compound 70]
3,+ (≧10% = +),227 (SEMEELPSV; listed as Homo sapiens) [compound 227]
4,+++ (≧50 = +++),3 (RVIDDSLVVGV; listed as Homo sapiens) [compound 3]
5,++ (≧20% = ++),20 (ALVEKGEFAL; listed as Homo sapiens) [compound 20]
6,++++ (≧75% = ++++),1 (KLQEKIQEL; listed as Homo sapiens) [compound 1]
7,+++ (≧50 = +++),261 (GLAALAVHL; listed as Homo sapiens) [compound 261]
8,+++ (≧50 = +++),99 (TLFGIQLTEA; listed as Homo sapiens) [compound 99]
9,+++ (≧50 = +++),140 (FLDSQITTV; listed as Homo sapiens) [compound 140]
10,+++ (≧50 = +++),214 (ALFETLIQL; listed as Homo sapiens) [compound 214]
11,++ (≧20% = ++),155 (TLDSYLKAV; listed as Homo sapiens) [compound 155]
12,++ (≧20% = ++),238 (HLQEKLQSL; listed as Homo sapiens) [compound 238]
13,+++ (≧50 = +++),228 (SLLELDGINLRL; listed as Homo sapiens) [compound 228]
14,+++ (≧50 = +++),239 (VIIKGLEEITV; listed as Homo sapiens) [compound 239]
15,++++ (≧75% = ++++),234 (VLLNEILEQV; listed as Homo sapiens) [compound 234]
16,+++ (≧50 = +++),218 (SLTGANITV; listed as Homo sapiens) [compound 218]
17,+++ (≧50 = +++),220 (ALSELERVL; listed as Homo sapiens) [compound 220]
18,+++ (≧50 = +++),131 (SLYPHFTLL; listed as Homo sapiens) [compound 131]
19,++ (≧20% = ++),229 (YLYELEHAL; listed as Homo sapiens) [compound 229]
20,++ (≧20% = ++),124 (ALLLRLFTI; listed as Homo sapiens) [compound 124]
21,+++ (≧50 = +++),87 (KLLSLLEEA; listed as Homo sapiens) [compound 87]

row,"Peptide exchange (MHC class I binding score, peptide exchange yield)",Substance
1,+++ (≧50 = +++),283 (ALSELLQQV; listed as Homo sapiens) [compound 283]
2,++++ (≧75% = ++++),6 (FLNAIETAL; listed as Homo sapiens) [compound 6]
3,+++ (≧50 = +++),112 (ILAQDVAQL; listed as Homo sapiens) [compound 112]
4,++ (≧20% = ++),65 (SLSEKSPEV; listed as Homo sapiens) [compound 65]
5,+++ (≧50 = +++),253 (KLLAVIHEL; listed as Homo sapiens) [compound 253]
6,++ (≧20% = ++),79 (TVLEEIGNRV; listed as Homo sapiens) [compound 79]
7,+++ (≧50 = +++),125 (AALEVLAEV; listed as Homo sapiens) [compound 125]
8,++ (≧20% = ++),107 (RVLPGQAVTGV; listed as Homo sapiens) [compound 107]
9,+++ (≧50 = +++),10 (QLIEKNWLL; listed as Homo sapiens) [compound 10]
10,++ (≧20% = ++),222 (LLTGVFAQL; listed as Homo sapiens) [compound 222]
11,++ (≧20% = ++),146 (VVAAHLAGA; listed as Homo sapiens) [compound 146]
12,+++ (≧50 = +++),48 (KISDFGLATV; listed as Homo sapiens) [compound 48]
13,+++ (≧50 = +++),136 (LLWDAPAKC; listed as Homo sapiens) [compound 136]
14,++ (≧20% = ++),103 (YLADTVQKL; listed as Homo sapiens) [compound 103]
15,+++ (≧50 = +++),108 (FIANLPPELKA; listed as Homo sapiens) [compound 108]
16,+ (≧10% = +),53 (AQHLSTLLL; listed as Homo sapiens) [compound 53]
17,++ (≧20% = ++),69 (LKVLKADVVL; listed as Homo sapiens) [compound 69]
18,++ (≧20% = ++),275 (AVPPPPSSV; listed as Homo sapiens) [compound 275]
19,+++ (≧50 = +++),182 (GLQDGFQITV; listed as Homo sapiens) [compound 182]
20,+++ (≧50 = +++),132 (ALLNNVIEV; listed as Homo sapiens) [compound 132]
